Assay results from the supplement of paper PMC10724198.
± gives the standard deviation of the averaged measurements.

These sequences were tested on Saccharomyces cerevisiae (assay: protein stability index of tFT-peptide fusion (C-terminal peptide) (PSI (0-1 scale)); higher = more stable (slower turnover)). Settings: genetic background: wild type; temperature: 30 C.
Method: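 Multiplexed protein stability (MPS) profiling in S. cerevisiae. Random 12-aa peptides (tFT-X12 library) are fused to the C-terminus of a sfGFP-mCherry tandem fluorescent timer, after mCherry and a GGGS linker. Cells are FACS-sorted into 8 mCherry/sfGFP bins and deep-sequenced. The protein stability index (PSI) is the read-weighted bin average, scaled from 0 (unstable) to 1 (stable). Only peptides with >10 reads are reported; cells were grown at 30 °C in SC-His with glucose.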
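Note: PSI is a weighted mean of sequencing reads over stability bins, variants kept only with over 10 reads, mCherry proximal and sfGFP distal, peptide attached via GGGS linker.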

Row | Sequence | protein stability index
1 | PVPSPFMHRAAP | 0.702 ± 0.015
2 | WRLGGGMVCVAS | 0.566 ± 0.042
3 | SPPESTFAFLRP | 0.706 ± 0.037
4 | ATFSVMRGQHGQ | 0.686 ± 0.0057
5 | SAFPGGCCSILL | 0.709 ± 0.022
6 | GSCLLCGACGCR | 0.692 ± 0.061
7 | PPPLPPQTLTFC | 0.729 ± 0.075
8 | PTRIPRAPGPAQ | 0.694 ± 0.025
9 | ISLLIFSPTLFS | 0.687 ± 0.035
10 | SPPLSPPLPSRP | 0.7016 ± 0.0064
11 | VTSSLHAVPWSR | 0.693 ± 0.0088
12 | LGRGRWSVLVVR | 0.5287 ± 0.0014
13 | NRLPGNLKKKDN | 0.687 ± 0.019
14 | VFPYGVSRGALL | 0.66 ± 0.011
15 | DTPERKGNLEEH | 0.709 ± 0.053
16 | AHYPGRAHLLCL | 0.607 ± 0.02
17 | FMVFCFPFTGVL | 0.562 ± 0.022
18 | YIVARMVRAVIP | 0.741 ± 0.035
19 | PPPLPLLPSSPL | 0.685 ± 0.013
20 | ALLPSAWPFRPP | 0.611 ± 0.044
21 | PRSTATSPPAPP | 0.6678 ± 0.0019
22 | TLSPFRLFGPIS | 0.722 ± 0.092
23 | PPLPSTAPPSPL | 0.735 ± 0.0096
24 | WGGLGRVWVKLG | 0.706 ± 0.038
25 | LFIYSMKRFILE | 0.631 ± 0.052

Row | Sequence | protein stability index
26 | LPLRAHPTISFP | 0.751 ± 0.05
27 | KKITTDNKKNKI | 0.651 ± 0.067
28 | TEIKILNKKKSR | 0.7294 ± 0.0043
29 | FSACSGSHVEVW | 0.695 ± 0.037
30 | PPPRLPPPPHAL | 0.795 ± 0.044
31 | KYKELEAAALQK | 0.732 ± 0.11
32 | SENKRKEHRMSF | 0.712 ± 0.05
33 | AVVVCGGGGWWA | 0.687 ± 0.068
34 | LLLSSPPFPALL | 0.638 ± 0.0074
35 | VPFPHALLSALP | 0.638 ± 0.037
36 | PRTLRHSGRLAE | 0.705 ± 0.016
37 | SRSGPGEIVTTG | 0.688 ± 0.041
38 | GRAWWVGGEGVW | 0.677 ± 0.014
39 | HTEVDIVKRDRR | 0.6896 ± 0.00098
40 | TKKDNKYNRNKK | 0.656 ± 0.029
41 | PPPPPLPPPPSP | 0.656 ± 0.052
42 | RGCGRLDGRRGG | 0.704 ± 0.015
43 | RRWAFWGAAAAR | 0.702 ± 0.013
44 | TRSPTVAMRPKE | 0.676 ± 0.036
45 | QCNYCVQNLSSR | 0.695 ± 0.019
46 | GSYSIVDRTPLF | 0.5679 ± 0.005
47 | PTTLCLSDRPQP | 0.721 ± 0.0081
48 | FCNPHVGGIRRA | 0.684 ± 0.05
49 | DASGGKKVSRGT | 0.571
50 | PPPLFPPSSLLP | 0.706 ± 0.033

Row | Sequence | protein stability index
51 | VFFCHFRFTPPS | 0.692 ± 0.059
52 | PPHAPKPPPTAA | 0.588 ± 0.077
53 | FHPRPPLLPSLP | 0.6435 ± 0.003
54 | RGSSWSRVAGDG | 0.631 ± 0.063
55 | FVVVVVGGGWGG | 0.516 ± 0.0068
56 | KLAHVKIKKTGK | 0.652 ± 0.018
57 | RMGGRGGRLGAE | 0.657 ± 0.018
58 | GVERSLFGRIGV | 0.735 ± 0.024
59 | FHFPHPFLPFPS | 0.666 ± 0.12
60 | TGNARCYFGKSV | 0.692 ± 0.011
61 | IEFPQGRKTTQS | 0.629 ± 0.0082
62 | RLHHQYSEATIS | 0.703 ± 0.027
63 | LPSPLPPPAWTP | 0.735 ± 0.029
64 | PPPGRRRLRGPT | 0.705 ± 0.04
65 | SSPPRPLPPHHT | 0.705 ± 0.059
66 | SRWLLSLFTSSF | 0.762 ± 0.052
67 | PSDYDCHRKTFS | 0.738 ± 0.01
68 | SSVEREEEGGGG | 0.676 ± 0.11
69 | PYFFSPIFTRTP | 0.712 ± 0.027
70 | CGGFAEGGGCRM | 0.697 ± 0.028
71 | PRSAMTRHSSCR | 0.65 ± 0.017
72 | ALGVGLDEILVM | 0.556 ± 0.0093
73 | CPFPLPPPTLPP | 0.657 ± 0.01
74 | QGWDGSRRRPGL | 0.706 ± 0.031
75 | VGCPKMTKIFFV | 0.594 ± 0.028

Row | Sequence | protein stability index
76 | LRSARPALLCTP | 0.678 ± 0.037
77 | VCTRACFLFAYP | 0.582 ± 0.015
78 | FHRHILCSDPRL | 0.709 ± 0.022
79 | VSGLGAHEPDKL | 0.667 ± 0.0072
80 | AGVECADRVLWG | 0.774 ± 0.066
81 | VCLRVGQGVLWW | 0.727 ± 0.021
82 | KKNKKNKKKKKN | 0.63 ± 0.082
83 | HKKAWVVTVGIS | 0.602 ± 0.042
84 | EYISNLLSSPEP | 0.633 ± 0.013
85 | ALWALSTHHVRK | 0.73866 ± 0.00051
86 | AALTPSCPLHLP | 0.713 ± 0.024
87 | SQHTNTKTKLKK | 0.706 ± 0.043
88 | DENEKIKKVKVK | 0.754 ± 0.02
89 | DLCITNTMLFYL | 0.7025 ± 0.006
90 | SPAKRLFRFPSS | 0.729 ± 0.05
91 | VVGSVFGGVRAA | 0.708 ± 0.032
92 | FCPVGVFCGIFG | 0.644 ± 0.029
93 | NWARLGVRMGAA | 0.66 ± 0.013
94 | DSDGILTEPTSW | 0.707 ± 0.0094
95 | LISRFFPSRSAP | 0.854 ± 0.021
96 | KKTKEQEGEKTE | 0.679 ± 0.026
97 | EAIGGVPASSRP | 0.661 ± 0.0091
98 | PRSAPPPPNSLF | 0.656 ± 0.035
